Measurements from US20230365685A1 (SUZHOU NEOLOGICS BIOSCIENCE, published 2023).
Positions count from the first letter of the chain named.

B1: CH 11# (antibody, V domains shown)
VH: QVKLQQSGPDLVKPGASVKISCKASGYSFTGYYMHWVKQSHGKSLEWIGRVNPNNGGTTYKQKFKGKVILTVDKSSSTAYMELRSLTSEDSAVYYCAREGEYFDYYTMDYWGQGTTVTVSS
VL: DIELTQSPASLAVSLGQRATISCRASESVEYYGTSLMQWYQQKPGQPPKLLIYAASNVESGVPARFSGSVSGTDFSLNIHPVEEDDIAVYFCQQSRKVPITFGSGTKLELK
B2: CH 9# (antibody, V domains shown)
VH: QVKLQESGPGLVAPSQSLSITCTVSGFSLTGYGVHWVRQPPGKGLEWLGMIWGDGSTDYNSALKSRLSISKDNSKSQVFLKMNSLQTDDTARYYCARDRGNHWYFDVWGQGTTVTVSS
VL: DIELTQSPAILSASPGEKVTMTCRASSSVSYMHWYQQKPGSSPKPWIYATSNLASGVPARFSGSGSGTSYSLTISRVEAEDAATYYCQQWSSNPLTFGAGTKLEIK
B3: 84G10 (antibody, V domains shown)
VH: QVQLQQSGGELVRPGSSVKISCKASGYAFSSYWMNWVKQRPGQGLEWIGQIYPGEGDTNYNGKFKGKATLTADKSSSTAYMQLSSLTSEDSAVYFCARGHFYGSSYDWFAYWGQGTLVTVSA
VL: DIQMTQSPASLSASVGETVTITCRASENINSYLAWYQQKQGKSPQLLVYHAKTLASGVPSRFSGSGSGTQFSLKINSLQPEDFGSYYCQHHYGTPLTFGAGARLELK
B4: CH 5# (antibody, V domains shown)
VH: B1 VH with K3Q, T59D, K61D, V68A, T71S, S77N, T107A
VL: B1 VL with V89M, L110I
B5: CH 8# (antibody, V domains shown)
VH: B1 VH with N52Y, T59S, K61N, V68A, Y106F, T107A
VL: B1 VL with P63A, V70G, V89M, Q94P, I100Y, S104G, L110I
B6: 36B11 (antibody, V domains shown)
VH: QVTLKESGPGILQPSQTLSLTCSFSGFSLSTSGMGVGWIRQPSGKGLEWLAHIWWDDVKRYNPALKSRLTISKDTSSSQVFLKIASVDTADTATYYCVRTFITTTTMDYWGQGTSVTVSS
VL: QIVLTQSPTIMSASPGEKVTLTCSASSGISSSYLYWYQQKPGSSPKLWIYGTSNLASGVPARFSGSGSGTSYSLTISSLEAEDAASYFCHQWSNYPYTFGGGTKLEIK
B7: 38F8 (antibody, V domains shown)
VH: EVQLQQLGAELVKPGASVKISCKASGYIFTDYSMDWVKQSHGESLEWIGDINPNYDSLSYNQKFKGKATLTVDKSSSTAYMELRSLTSEDTAVYYCARRGYGKDYFDFWGQGTSLTVSS
VL: TWGMTQTTSSLSASLGDRVTISCRASQDISNYLNWYQQKPDGTVKLLIYHTSRLYSGVPSRFTGSGSGTDYSLTISNLEQEDIATYFCQQGNTLPLTFGAGTKLELK
B8: 18C6 (antibody, V domains shown)
VH: QVQLQQPGAEIVMPGASVKMSCKASGYKFTDFLMHWVKQRPGQGLEWIGAIDTSDSYASYNQKFKGKATLTLDESSSTAYMQLSSLTSEDSAVYYCSREAMDYWGQGTSVTVSS
VL: DVVMTQTPLSLPVSLGDQASISCRSSQSLVHSNGNTYLHWFLQKPGQSPKLLIYKVSNRFSGVPDRFSGSGSGTDFTLKISRVEAEDLGVYFCCQSTHVPPLTFGAGTKLELK
B9: 36A2 (antibody, V domains shown)
VH: DVQLVESGGGLVQPGGSRKLSCAASGFTFSSFEMHWVRQAPETGLEWVAYISGGSTTIYYADTMKGRFTISRDNPENTLFLQMTSLRSEDTAIYYCVRSYYGLLDYWGQGTTLTVSS
VL: NIMMTQSPSSLSVSTGEKVTMSCKSSQSVLHSSNQKNFLAWFQQKPGQSPKLLIYWASTRESGVPDRFTGSGSGTDFTLTINNVQPEDLAVYYCHQYLSSLTFGAGTKLELK
notes: also called 36A12
B10: 38A8 (antibody, V domains shown)
VH: QVQLQQPGAELVKPGASVKMSCKASGYTFTTYNMHWVKQTPGQGLEWIGGIYPGNGDTSYNQKFKGKATLTADKSSSTAYMQLSSLTSEDSAVYYCARSYYTFDAMDCWGQGTSVTVSS
VL: DIVMSQSPSSLAVSAGEKVTMSCKSSQSLLNSRTRKNYLAWYQQKPGRSPKLLIYWASTRESGVPDRFTGGGSGTDFTLTISSVQAEDLAVYYCKQSYSLLTFGAGTKLELK
B11: 40F11 (antibody, V domains shown)
VH: QIQLVQSGPELKKPGETVRISCKASGYTFRTAEMQWVQKMPGRGLKWIGWINTRSGVPKYAEDFKGRFALSLETSATTAYLQISNLKNEDTATYFCTRGTYAMDYWGQGTSVTVSS
VL: ENVLTQSPAIMSASPGEKVTMTCRASSIVSSSYLHWYQQKSGASPKLWIYSTSNLPSGVPARFSGSGSGTFYSLTVSSVESEDAATYYCQQYSGYPYTFGGGTKLEIK
B12: 50H9 (antibody, V domains shown)
VH: EVQLVESGGDLVKPGGSLKLSCAASGFTFSTNGMSWVRQIPDKRLEWVATISSGGSNTYYPDSVKGRFTISRDNAKNTLYLQMSSLKSEDTAMYYCARRSELGPFAYWGQGTLVTVSA
VL: DVQMIQSPSSLSASLGDIVTMTCQASQGSSVNLNWFQQKPGKSPKLLIHGSNILEDGVPSRFSGSRYGTDFTLTISSLENEDMATYFCLQHSYLPYTFGGGTKLEIK
B13: 3E6 VH4/3E6 VL0 (antibody, V domains shown)
VH: QVQLQESGPGLVKPSQTLSLTCTVSGYSITSGFAWNWIRQPPGNGLEWIGYISHSGSTSYNPSLKSRITISVDTSKNQFSLKLSSVTAADTAVYYCARGYRSPWFAYWGQGTTVTVSS
VL: DIQMTQSPSSLSASVGDRVTITCKASQNVGANVAWYQQKPGKAPKSLIYSASYRYSGVPSRFSGSGSGTDFTLTISSLQPEDFATYYCQQYNSYPTFGGGTKVEIK
notes: Humanized 3E6; VH and VL cloned into vectors with constant regions (CH1-FC/CL) and expressed in 293F cells; also called humanized 3E6 VH4/VL0
B14: 3E6 VH7/3E6 VL0 (antibody, V domains shown)
VH: B13 VH with N44K, I49M, V72R
VL: B13 VL
notes: Humanized 3E6; VH and VL cloned into vectors with constant regions (CH1-FC/CL) and expressed in 293F cells; also called humanized 3E6 VH7/VL0
B15: 3E6 VH6/3E6 VL0 (antibody, V domains shown)
VH: B13 VH with N44K, I49M
VL: B13 VL
notes: Humanized 3E6; VH and VL cloned into vectors with constant regions (CH1-FC/CL) and expressed in 293F cells; also called humanized 3E6 VH6/VL0
B16: 3E6 VH2/3E6 VL0 (antibody, V domains shown)
VH: B13 VH with N44K, I49M, I68V
VL: B13 VL
notes: Humanized 3E6; VH and VL cloned into vectors with constant regions (CH1-FC/CL) and expressed in 293F cells; also called humanized 3E6 VH2/VL0
B17: 3E6 VH3/3E6 VL0 (antibody, V domains shown)
VH: B13 VH with I68V
VL: B13 VL
notes: Humanized 3E6; VH and VL cloned into vectors with constant regions (CH1-FC/CL) and expressed in 293F cells; also called humanized 3E6 VH3/VL0
B18: 3E6 VH5/3E6 VL0 (antibody, V domains shown)
VH: B13 VH with V72R
VL: B13 VL
notes: Humanized 3E6; VH and VL cloned into vectors with constant regions (CH1-FC/CL) and expressed in 293F cells; also called humanized 3E6 VH5/VL0
B19: 3E6 VH1/3E6 VL0 (antibody, V domains shown)
VH: B13 VH with P41F, I49M, I68V
VL: B13 VL
notes: Humanized 3E6; VH and VL cloned into vectors with constant regions (CH1-FC/CL) and expressed in 293F cells; also called humanized 3E6 VH1/VL0

Molecular target: T1, biotinylated human TIM-3 (human, UniProt Q8TDQ0 22-202, limits assumed, biotinylated (sites not given))
Assay: competition ELISA: antibody coated, biotinylated human TIM-3 preincubated with competitor MBG453
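Wherever inhibit percentage is given: plate-coated antibody at 2 µg/mL.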

| inhibit percentage | Binder |
| --- | --- |
| 29.4% | B1 |

Molecular target: T1, biotinylated human TIM-3
Assay: competition ELISA: antibody coated, biotinylated human TIM-3 preincubated with competitor 4H2
Procedure: (§1) Antibodies were diluted with PBS to 2 μg/mL. 50 μl antibody solution was added to each well of the 96-well plate, which was incubated at 4° C. overnight. The plate was then washed with wash buffer (0.05% Tween in PBS) three times and blocked with 5% skim milk in PBS at 37° C. for two hours. The biotinylated human TIM-3 and antibodies were preincubated at room temperature for half an hour and then added to the plate. The plate was then incubated at room temperature for 1 hour and washed three times with wash buffer. 50 μl streptavidin HRP (1:1000, BD) was then added to each well at room temperature and incubated for about 1 hour. 50 μl of TMB substrate was added to each well, and the reaction was then terminated with 50 μl HCL after 1-5 minutes. Absorbance was read at 450 nm and IC50 value was analyzed.

| inhibit percentage | Binder |
| --- | --- |
| 99.6% | B1 |

Molecular target: T1, biotinylated human TIM-3
Assay: competition ELISA: antibody coated, biotinylated human TIM-3 preincubated with competitor CH 10#
Procedure: as §1

| inhibit percentage | Binder |
| --- | --- |
| 98.2% | B1 |

Molecular target: T1, biotinylated human TIM-3
Assay: competition ELISA: antibody coated, biotinylated human TIM-3 preincubated with competitor 19D11
Procedure: as §1

| inhibit percentage | Binder |
| --- | --- |
| 99.4% | B1 |

Molecular target: T1, biotinylated human TIM-3
Assay: competition ELISA: antibody coated, biotinylated human TIM-3 preincubated with competitor 16H1
Procedure: as §1

| inhibit percentage | Binder |
| --- | --- |
| 0% | B1 |

Molecular target: T2, human TIM-3 recombinant protein (TIM-3-his) (human, UniProt Q8TDQ0 22-202)
T2 construct: also called TIM-3 protein; not shown: His tag
Assay: biosensor (HFC sensor, Probe Life): antibody captured, TIM-3-his in solution, 1:1 fit;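 further: antigen applied as a twofold dilution series, association and dissociation phases recorded, KD obtained as koff divided by kon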

| Kd | koff | kon | Binder |
| --- | --- | --- | --- |
| 553 nM | 0.00287 s⁻¹ | 5190 M⁻¹ s⁻¹ | B2 |
| 2.84 nM | 0.00197 s⁻¹ | 692000 M⁻¹ s⁻¹ | B3 |
| 188 nM | 0.00153 s⁻¹ | 8130 M⁻¹ s⁻¹ | B4 |
| 512 nM | 0.00253 s⁻¹ | 4930 M⁻¹ s⁻¹ | B5 |
| 19.1 nM | 0.000705 s⁻¹ | 36900 M⁻¹ s⁻¹ | B1 |
| 0.432 nM | 0.000383 s⁻¹ | 885000 M⁻¹ s⁻¹ | B6 |
| 1.74 nM | 0.00255 s⁻¹ | 1.47e+06 M⁻¹ s⁻¹ | B7 |
| 0.207 nM | 0.00012 s⁻¹ | 580000 M⁻¹ s⁻¹ | B8 |
| 1.01 nM | 0.000559 s⁻¹ | 553000 M⁻¹ s⁻¹ | B9 |
| 1.36 nM | 0.00126 s⁻¹ | 928000 M⁻¹ s⁻¹ | B10 |
| 2.21 nM | 0.0019 s⁻¹ | 857000 M⁻¹ s⁻¹ | B11 |
| 6 nM | 0.00903 s⁻¹ | 1.51e+06 M⁻¹ s⁻¹ | B12 |

Molecular target: T3, mouse TIM-3 (mouse, UniProt Q8VIM0 20-281)
T3 construct: whole, on cells
Assay: flow cytometry on cells stably expressing mouse TIM-3, PE-labelled secondary antibody; concentration not shown

| binding result | Binder |
| --- | --- |
| no binding | B1 |
| no binding | B8 |

Molecular target: T1, biotinylated human TIM-3
Assay: competition ELISA: antibody coated, biotinylated human TIM-3 preincubated with competitor 3E6
Procedure: as §1

| inhibit percentage | Binder |
| --- | --- |
| 97.8% | B1 |

Molecular target: T1, biotinylated human TIM-3
Assay: competition ELISA: antibody coated, biotinylated human TIM-3 preincubated with competitor TSR022
Procedure: as §1

| inhibit percentage | Binder |
| --- | --- |
| 0% | B1 |

Molecular target: T4, human TIM-3 (human, UniProt Q8TDQ0 22-202, limits assumed)
T4 construct: also called HAVCR2; target antigen
Assay: BLI (Octet-96); antigen not named in the paragraph

| Kd | Binder |
| --- | --- |
| 1.87 nM | B13 |
| 1.96 nM | B14 |
| 1.46 nM | B15 |
| 2.21 nM | B16 |
| 1.98 nM | B17 |
| 1.78 nM | B18 |
| 467 nM | B19 |

Molecular target: T1, biotinylated human TIM-3
Assay: competition ELISA: antibody coated, biotinylated human TIM-3 preincubated with competitor CH 11#
Procedure: as §1

| inhibit percentage | Binder |
| --- | --- |
| 100% | B1 |
